Residue numbers refer to the chain shown, from its start. Names and notes keep the numbering of the source.
T1: TNFR1 (Homo sapiens, UniProt P19438)
T1 chain: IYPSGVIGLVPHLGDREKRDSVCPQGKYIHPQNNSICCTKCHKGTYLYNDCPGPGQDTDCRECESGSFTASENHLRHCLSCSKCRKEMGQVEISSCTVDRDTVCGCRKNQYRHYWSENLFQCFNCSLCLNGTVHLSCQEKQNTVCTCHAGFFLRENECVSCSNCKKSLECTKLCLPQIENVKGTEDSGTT

B1: A46L (designed binder)
chain: SMEEEVEKAAKEYEKKKKEAIEKHLEKLKAKDKEAAERFLKELEELAKEYAKDEAKTMSEEEAKRRAKKYKEKVLLSELSEEEQKEIKEAEEKLVRTILKYVEEAAK
B2: K48F (designed binder)
chain: B1 chain with L46A, K48F
B3: K64S (designed binder)
chain: B1 chain with L46A, K64S
B4: K88P (designed binder)
chain: B1 chain with L46A, K88P
B5: E103Y (designed binder)
chain: B1 chain with L46A, E103Y
B6: L75D (designed binder)
chain: B1 chain with L46A, L75D
B7: E26L (designed binder)
chain: B1 chain with E26L, L46A
B8: L40N (designed binder)
chain: B1 chain with L40N, L46A
B9: E49L (designed binder)
chain: B1 chain with L46A, E49L
B10: A106I (designed binder)
chain: B1 chain with L46A, A106I
B11: L76I (designed binder)
chain: B1 chain with L46A, L76I
B12: E3K (designed binder)
chain: B1 chain with E3K, L46A
B13: K69P (designed binder)
chain: B1 chain with L46A, K69P
B14: K23T (designed binder)
chain: B1 chain with K23T, L46A
B15: S59I (designed binder)
chain: B1 chain with L46A, S59I
B16: F39D (designed binder)
chain: B1 chain with F39D, L46A
B17: A10I (designed binder)
chain: B1 chain with A10I, L46A
B18: I87L (designed binder)
chain: B1 chain with L46A, I87L
B19: E61M (designed binder)
chain: B1 chain with L46A, E61M
B20: L40Q (designed binder)
chain: B1 chain with L40Q, L46A
B21: R38G (designed binder)
chain: B1 chain with R38G, L46A
B22: K48E (designed binder)
chain: B1 chain with L46A, K48E
B23: L40D (designed binder)
chain: B1 chain with L40D, L46A
B24: E54S (designed binder)
chain: B1 chain with L46A, E54S
B25: E92L (designed binder)
chain: B1 chain with L46A, E92L
B26: E7F (designed binder)
chain: B1 chain with E7F, L46A
B27: E78T (designed binder)
chain: B1 chain with L46A, E78T
B28: F39W (designed binder)
chain: B1 chain with F39W, L46A
B29: H24L (designed binder)
chain: B1 chain with H24L, L46A
B30: A55M (designed binder)
chain: B1 chain with L46A, A55M
B31: K27P (designed binder)
chain: B1 chain with K27P, L46A
B32: E86P (designed binder)
chain: B1 chain with L46A, E86P
B33: T97Q (designed binder)
chain: B1 chain with L46A, T97Q
B34: E7T (designed binder)
chain: B1 chain with E7T, L46A
B35: E34C (designed binder)
chain: B1 chain with E34C, L46A
B36: K71R (designed binder)
chain: B1 chain with L46A, K71R
B37: E37S (designed binder)
chain: B1 chain with E37S, L46A
B38: E61T (designed binder)
chain: B1 chain with L46A, E61T
B39: K56A (designed binder)
chain: B1 chain with L46A, K56A
B40: A63W (designed binder)
chain: B1 chain with L46A, A63W
B41: E104W (designed binder)
chain: B1 chain with L46A, E104W
B42: L28V (designed binder)
chain: B1 chain with L28V, L46A
B43: R96N (designed binder)
chain: B1 chain with L46A, R96N

Target: T1, TNFR1
Test: yeast display SC50

apparent Kd (screen) | Binder
12.5 nM | B1
0.593 nM | B2
0.718 nM | B3
7.78 nM | B4
1.86 nM | B5
5.84 nM | B6
0.869 nM | B7
0.539 nM | B8
10.4 nM | B9
5.84 nM | B10
1.16 nM | B11
0.653 nM | B12
22.2 nM | B13
0.446 nM | B14
2.73 nM | B15
7.07 nM | B16
0.446 nM | B17
2.25 nM | B18
1.27 nM | B19
0.49 nM | B20
2.73 nM | B21
0.446 nM | B22

apparent Kd (screen) | Binder
1.4 nM | B23
6.43 nM | B24
10.4 nM | B25
20.2 nM | B26
1.27 nM | B27
1.05 nM | B28
0.539 nM | B29
0.446 nM | B30
2.73 nM | B31
12.5 nM | B32
0.446 nM | B33
2.73 nM | B34
1.16 nM | B35
0.593 nM | B36
0.49 nM | B37
0.956 nM | B38
3 nM | B39
1.54 nM | B40
0.869 nM | B41
0.79 nM | B42
3 nM | B43

— PMC12416549 (2024)
